Test results as given in patent publication US20180237502A1 (INTEGRATED BIOTHERAPEUTICS, published 2018).

Tests used:
MARV GPddmuc = target: T1, MARV GPddmuc (Marburg virus (MARV), UniProt P35253 19-637); experiment: ELISA, purified GPddmuc immobilized, serial dilutions of purified mouse mAb
T1 construct: also called Marburg virus glycoprotein GPddmuc

SUDV GPddmuc = SUDV GPddmuc (Sudan virus (SUDV), UniProt Q66814 33-632)
SUDV GPdTM = target: T2, SUDV GPdTM (Sudan virus (SUDV), UniProt Q66814 33-637)
T2 sequence: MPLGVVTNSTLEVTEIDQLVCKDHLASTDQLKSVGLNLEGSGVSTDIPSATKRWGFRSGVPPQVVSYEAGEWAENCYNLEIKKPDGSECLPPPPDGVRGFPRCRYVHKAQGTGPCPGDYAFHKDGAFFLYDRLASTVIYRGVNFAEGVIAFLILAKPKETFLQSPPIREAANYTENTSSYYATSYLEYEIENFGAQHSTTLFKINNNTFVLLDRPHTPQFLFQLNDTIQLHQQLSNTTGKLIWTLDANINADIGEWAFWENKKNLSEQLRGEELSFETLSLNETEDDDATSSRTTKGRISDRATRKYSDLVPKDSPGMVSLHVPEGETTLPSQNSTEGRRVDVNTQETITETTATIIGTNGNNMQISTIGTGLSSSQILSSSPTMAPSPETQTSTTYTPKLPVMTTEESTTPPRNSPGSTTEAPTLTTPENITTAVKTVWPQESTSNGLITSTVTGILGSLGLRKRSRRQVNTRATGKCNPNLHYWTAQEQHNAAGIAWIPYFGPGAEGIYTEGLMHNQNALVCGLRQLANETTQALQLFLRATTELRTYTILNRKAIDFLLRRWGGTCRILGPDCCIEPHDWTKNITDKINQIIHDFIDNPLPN

| Binder | binding result (MARV GPddmuc) | EC50 (SUDV GPddmuc) | EC50 (SUDV GPdTM) |
| --- | --- | --- | --- |
| murine monoclonal antibody 4B8 (antibody, V domains shown, also called m4B8) VH: EVQLQESGPGILQPSQTLSLTCSFSGFSLRTLGMGVGWIRQSSGKGLEWLAHIWWSDENYYNPALKSRLTISKDTSKNQVFLRIANVDTAETATYYCARIAYDGYFDYWGQGTSLTVSS VL: KFPSQLLLLLLFGIPGDRVTITCKASEDIYNRLAWYQQKPGNAPRLLISGATSLETGVPSRFSGSGSGKDYTLSITSLQTEDVATYYCQQYWTTPWTFGGGTKLEIKR | no binding | 0.095 µg/mL | 0.088 µg/mL |
| murine monoclonal antibody 2D8 (antibody, V domains shown) VH: EVQLQESGGELVRPGTSVKISCKASGYTFTNFWLGWIKERPGHGLEWIGDIYPGGHYTNYNENFKGKATLTADTSSNTAYMQVSSLTSEDSAVYFCFTQYYDMDYWGQGTSVTVSS VL: not shown |  |  | > 10 µg/mL |
| murine monoclonal antibody 8C4 (antibody, V domains shown, also called m8C4) VH: EVQLQESGPELKKPGETVKISCKASGYTFTTYGMSWVKQAPGKGLKWMGRINTYSGVPTYADEFKGRFAFSLENSASTAYLQINNLKNEDTATYFCARGDGGHWFANWGQGTLVTVSA VL: DIQMTQSPSSLSASLGGKVTITCKASQDINKNIAWYQHKPGKGPRLLIWYKSALQPGIPSRFSGSGSGRDYSFSISNLEPEDIATYSCLQYDNLPPTFGGGTKLEIKR |  |  | 0.15 µg/mL |
| murine monoclonal antibody 16G8 (antibody, V domains shown, also called m16G8) VH: EVQLQESGPGLVKPGASVKISCKASGYSFTGYYMNWVKQSPEKSLEWIGEINPSTGGTTYNQKFKAKATLTVDKSSSTAYMQLKSLTSEDSAVYYCVRYSHYYGSGSWYFDVWGTGTTVTVSS VL: DIQMTQSPASLSASVGETVTITCRASENIYSNLAWYQQKQGKSPQLLVNAATNLADGVPSRFSGSGSGTQFSLKINSLQPEDFGSYYCQHFYVTPYMFGSGTKLEIKR |  |  | > 10 µg/mL |
| murine monoclonal antibody 17C6 (antibody, V domains shown) VH: EVQLQESGPGLVQPSQSLSITCTVSGFSLTSYGVHWVRQSPGKGLEWLGVIWSGGSTDYNAAFISRLSISKDNSKSQVFFKMNSLQADDTAIYYCARNWFDYDNYYSMDYWGQGTSVTVSS VL: DIQMTQTTSSLSASLGDRVTISCRASQDISNYLNWYQQKPDGTVKLLIYYTSRLHSGVPSRFSGSGSGTDFSLTISNQEPEDIATYYCQQYSNLPWTFGGGTKLEIKR |  |  | 2 µg/mL |
